The target in assay [1] is T1, α-myosin (MYH6) peptide on HLA-A*03:01 (human).
T1 peptide: RINATLETK
Description: multimer staining.

The target of assay [2] is T2, α-myosin (MYH6) peptide on HLA-A*24:02 (human).
T2 peptide: RINATLETK
Description: multimer staining.

Assay [3] has as its target T3, α-myosin (MYH6) peptide on H-2Kb (mouse).
T3 peptide: VQQVYYSI
Description: activation reporter or marker.

For assay [4], the target named is T4, α-myosin (MYH6) peptide on H-2Kb (mouse).
T4 peptide: VIQYFASI
Briefly: activation reporter or marker.

B1: TCR-Pt1 (TCR)
alpha TRAV19 TRAJ32 CDR3: CALSDRYGGATNKLIF
beta TRBV9 TRBJ2-6 CDR3: CASSPYQSSGANVLTF
Regarding B1, the binding result is on record as “recognises” in assay [1] and “no recognition” in assay [2].

B2: TCR-C (TCR)
alpha TRAV6D-6 TRAJ39 CDR3: CALGDRNNAGAKLTF
beta TRBV12-2 TRBJ2-5 CDR3: CASSLGGTVQDTQYF
With B2, the binding result in assay [3] is recorded as “recognises”.

B3: TCR-B (TCR)
alpha TRAV13-1 TRAJ22 CDR3: CALERASGSWQLIF
beta TRBV15 TRBJ2-7 CDR3: CASSLRRGEQYF
B3: the binding result in assay [4] was “recognises”.

(Values after PMC9930174 (2022).)
